Experimental data from paper doi:10.1101/2025.05.06.651509 (bioRxiv, 2025).
Where a chain is given by its changes, count along the chain named. Names may count otherwise.

Target: the molecule itself
Assay: MST

B1: recombinant TSC22D4 (natural protein, human, UniProt Q9Y3Q8 1-395, looked up)
chain: MSGGKKKSSFQITSVTTDYEGPGSPGASDPPTPQPPTGPPPRLPNGEPSPDPGGKGTPRNGSPPPGAPSSRFRVVKLPHGLGEPYRRGRWTCVDVYERDLEPHSFGGLLEGIRGASGGAGGRSLDSRLELASLGLGAPTPPSGLSQGPTSWLRPPPTSPGPQARSFTGGLGQLVVPSKAKAEKPPLSASSPQQRPPEPETGESAGTSRAATPLPSLRVEAEAGGSGARTPPLSRRKAVDMRLRMELGAPEEMGQVPPLDSRPSSPALYFTHDASLVHKSPDPFGAVAAQKFSLAHSMLAISGHLDSDDDSGSGSLVGIDNKIEQAMDLVKSHLMFAVREEVEVLKEQIRELAERNAALEQENGLLRALASPEQLAQLPSSGVPRLGPPAPNGPSV
modifications: RED-tris-NTA dye on the His tag (labelled copy only)
**Q.** Does B1 bind?
**A.** binds

B2: TSC22D4 I322W (natural protein, human, UniProt Q9Y3Q8 1-395, looked up)
chain: B1 chain with I322W
**Q.** Does B2 bind?
**A.** binds
